# B1: NDC80-330 specific TCR (TCR, V domains shown)
# Valpha: EDQVTQSPEALRLQEGESSSLNCSYTVSGLRGLFWYRQDPGKGPEFLFTLYSAGEEKEKERLKATLTKKESFLHITAPKPEDSATYLCAVQAGSSASKIIFGSGTRLSIRP
# Vbeta: DAGVTQSPTHLIKTRGQQVTLRCSPKSGHDTVSWYQQALGQGPQFIFQYYEEEERQRGNFPDRFSGHQFPNYSSELNVNALLLGDSALYLCASSLSGGIYEQYFGPGTRLTVT
# Molecular target: T1, NDC80 (NDC80 CT antigen; peptide NDC80-330) peptide on HLA-A*02:01 (human)
# T1 peptide: GLNEEIARV
# Test: multimer staining
binder,measurement,value
B1,binding result,recognises

# Reference: patent US20250289866A1 (published 2025)
